Experimental data reported in paper PMC4884477.

Experiments:
[1] = target: S. aureus Hfq (Staphylococcus aureus, UniProt A0A0H3JV59 1-77); assay: fluorescence anisotropy
[2] = target: E. coli Hfq (Escherichia coli, UniProt P0A6X3 1-102); assay: fluorescence anisotropy

Binder: GUGGUCAGUCGAGUGGCUUCCGUCCAUUUCGGACGUUUUUU (structured_RNA) [Cy3-mini-sRNA]
- Kd [1]: 100 nM
- Kd [2]: 2.7 ± 0.8 nM
